Molecular target: M2e
Experiment: peptide ELISA, mAb 5 ug/mL

Substance | ELISA A450
TCN-031 (23K12) (antibody) | 0.43
chimeric mouse V-region/human IgG1 kappa 14C2 antibody | 3.98

— patent US20110070235A1
